According to publication PMC10786891, “Massively parallel profiling of RNA-targeting CRISPR-Cas13d”:

T1: EsCas13d, nuclease-dead (Eubacterium siraeum, UniProt B0MS50, R295A;H300A;R849A;H854A)
T1 sequence: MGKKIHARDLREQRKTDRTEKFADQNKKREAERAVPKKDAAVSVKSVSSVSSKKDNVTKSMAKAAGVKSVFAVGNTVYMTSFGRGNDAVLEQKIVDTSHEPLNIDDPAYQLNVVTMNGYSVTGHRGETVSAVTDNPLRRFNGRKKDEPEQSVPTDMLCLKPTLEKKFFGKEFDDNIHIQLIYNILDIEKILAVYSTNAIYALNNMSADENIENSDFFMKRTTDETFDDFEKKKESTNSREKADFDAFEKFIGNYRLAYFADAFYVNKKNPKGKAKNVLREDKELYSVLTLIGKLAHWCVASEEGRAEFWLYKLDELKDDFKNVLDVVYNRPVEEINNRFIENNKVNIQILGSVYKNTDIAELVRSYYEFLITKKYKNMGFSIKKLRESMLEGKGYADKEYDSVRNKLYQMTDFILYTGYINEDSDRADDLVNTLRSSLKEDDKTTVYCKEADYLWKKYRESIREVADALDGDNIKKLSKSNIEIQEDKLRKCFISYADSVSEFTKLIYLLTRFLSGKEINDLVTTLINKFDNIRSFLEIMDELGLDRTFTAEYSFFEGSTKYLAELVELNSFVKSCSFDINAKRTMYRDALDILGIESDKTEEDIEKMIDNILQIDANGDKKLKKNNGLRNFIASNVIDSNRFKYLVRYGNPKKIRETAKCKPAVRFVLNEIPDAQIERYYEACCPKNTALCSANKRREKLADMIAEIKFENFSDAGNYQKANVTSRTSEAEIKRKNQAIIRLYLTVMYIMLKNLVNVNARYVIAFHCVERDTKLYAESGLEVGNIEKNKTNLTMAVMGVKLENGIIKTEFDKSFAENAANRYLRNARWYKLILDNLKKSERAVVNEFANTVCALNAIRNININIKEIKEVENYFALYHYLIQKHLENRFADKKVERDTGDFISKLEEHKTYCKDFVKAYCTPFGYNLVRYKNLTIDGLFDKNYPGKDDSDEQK

B1: target 1 MT 5'PFS GUG 3'PFS UCG (mixed)
RNA 1: CACCCGUGCAAAAAUGCAGGGGUCUAAAACUGAGCGGAUAACCUCUCUAUGG
RNA 2: GGGAAUGGAUCCACAUCUACGAAUUCGUGCCAUAGAGAGGUUAUCCGCUCAUCGAGAUCGGAAGAGCACACGU
B2: target 1 MT 5'PFS GUG 3'PFS UCC (mixed)
RNA 1: CACCCGUGCAAAAAUGCAGGGGUCUAAAACUGAGCGGAUAACCUCUCUAUGG
RNA 2: GGGAAUGGAUCCACAUCUACGAAUUCGUGCCAUAGAGAGGUUAUCCGCUCAUCCAGAUCGGAAGAGCACACGU
B3: target 1 MT 5'PFS GUG 3'PFS UCA (mixed)
RNA 1: CACCCGUGCAAAAAUGCAGGGGUCUAAAACUGAGCGGAUAACCUCUCUAUGG
RNA 2: GGGAAUGGAUCCACAUCUACGAAUUCGUGCCAUAGAGAGGUUAUCCGCUCAUCAAGAUCGGAAGAGCACACGU
B4: target 1 MT 5'PFS CAC 3'PFS UCC (mixed)
RNA 1: CACCCGUGCAAAAAUGCAGGGGUCUAAAACUGAGCGGAUAACCUCUCUAUGG
RNA 2: GGGAAUGGAUCCACAUCUACGAAUUCCACCCAUAGAGAGGUUAUCCGCUCAUCCAGAUCGGAAGAGCACACGU
B5: target 1 MT 5'PFS GUG 3'PFS UCU (mixed)
RNA 1: CACCCGUGCAAAAAUGCAGGGGUCUAAAACUGAGCGGAUAACCUCUCUAUGG
RNA 2: GGGAAUGGAUCCACAUCUACGAAUUCGUGCCAUAGAGAGGUUAUCCGCUCAUCUAGAUCGGAAGAGCACACGU
B6: target 1 MT 5'PFS CAC 3'PFS UCG (mixed)
RNA 1: CACCCGUGCAAAAAUGCAGGGGUCUAAAACUGAGCGGAUAACCUCUCUAUGG
RNA 2: GGGAAUGGAUCCACAUCUACGAAUUCCACCCAUAGAGAGGUUAUCCGCUCAUCGAGAUCGGAAGAGCACACGU
B7: target 1 MT 5'PFS CAG 3'PFS UAC (mixed)
RNA 1: CACCCGUGCAAAAAUGCAGGGGUCUAAAACUGAGCGGAUAACCUCUCUAUGG
RNA 2: GGGAAUGGAUCCACAUCUACGAAUUCCAGCCAUAGAGAGGUUAUCCGCUCAUACAGAUCGGAAGAGCACACGU
B8: target 1 insU 3' of 12,insU 3' of 6 (mixed)
RNA 1: CACCCGUGCAAAAAUGCAGGGGUCUAAAACUGAGCGGAUAACCUCUCUAUGG
RNA 2: GGGAAUGGAUCCACAUCUACGAAUUCGUACCAUAGAGAGGUUUAUCCUGCUCACCGAGAUCGGAAGAGCACACGU
B9: target 1 insG 3' of 16,insG 3' of 3 (mixed)
RNA 1: CACCCGUGCAAAAAUGCAGGGGUCUAAAACUGAGCGGAUAACCUCUCUAUGG
RNA 2: GGGAAUGGAUCCACAUCUACGAAUUCGUACCAUAGAGGAGGUUAUCCGCUGCACCGAGAUCGGAAGAGCACACGU
B10: target 1 MT 5'PFS GGU 3'PFS ACU (mixed)
RNA 1: CACCCGUGCAAAAAUGCAGGGGUCUAAAACUGAGCGGAUAACCUCUCUAUGG
RNA 2: GGGAAUGGAUCCACAUCUACGAAUUCGGUCCAUAGAGAGGUUAUCCGCUCAACUAGAUCGGAAGAGCACACGU
B11: target 1 MT 5'PFS CAG 3'PFS UAU (mixed)
RNA 1: CACCCGUGCAAAAAUGCAGGGGUCUAAAACUGAGCGGAUAACCUCUCUAUGG
RNA 2: GGGAAUGGAUCCACAUCUACGAAUUCCAGCCAUAGAGAGGUUAUCCGCUCAUAUAGAUCGGAAGAGCACACGU
B12: target 1 MT 5'PFS AAU 3'PFS UUG (mixed)
RNA 1: CACCCGUGCAAAAAUGCAGGGGUCUAAAACUGAGCGGAUAACCUCUCUAUGG
RNA 2: GGGAAUGGAUCCACAUCUACGAAUUCAAUCCAUAGAGAGGUUAUCCGCUCAUUGAGAUCGGAAGAGCACACGU
B13: target 1 MT 5'PFS AAU 3'PFS UUC (mixed)
RNA 1: CACCCGUGCAAAAAUGCAGGGGUCUAAAACUGAGCGGAUAACCUCUCUAUGG
RNA 2: GGGAAUGGAUCCACAUCUACGAAUUCAAUCCAUAGAGAGGUUAUCCGCUCAUUCAGAUCGGAAGAGCACACGU
B14: target 1 MT 5'PFS GCU 3'PFS CCG (mixed)
RNA 1: CACCCGUGCAAAAAUGCAGGGGUCUAAAACUGAGCGGAUAACCUCUCUAUGG
RNA 2: GGGAAUGGAUCCACAUCUACGAAUUCGCUCCAUAGAGAGGUUAUCCGCUCACCGAGAUCGGAAGAGCACACGU
B15: target 1 MT 5'PFS GCU 3'PFS CCU (mixed)
RNA 1: CACCCGUGCAAAAAUGCAGGGGUCUAAAACUGAGCGGAUAACCUCUCUAUGG
RNA 2: GGGAAUGGAUCCACAUCUACGAAUUCGCUCCAUAGAGAGGUUAUCCGCUCACCUAGAUCGGAAGAGCACACGU
B16: target 1 MT 5'PFS AUA 3'PFS CCG (mixed)
RNA 1: CACCCGUGCAAAAAUGCAGGGGUCUAAAACUGAGCGGAUAACCUCUCUAUGG
RNA 2: GGGAAUGGAUCCACAUCUACGAAUUCAUACCAUAGAGAGGUUAUCCGCUCACCGAGAUCGGAAGAGCACACGU
B17: target 1 MT 5'PFS GCC 3'PFS AGU (mixed)
RNA 1: CACCCGUGCAAAAAUGCAGGGGUCUAAAACUGAGCGGAUAACCUCUCUAUGG
RNA 2: GGGAAUGGAUCCACAUCUACGAAUUCGCCCCAUAGAGAGGUUAUCCGCUCAAGUAGAUCGGAAGAGCACACGU
B18: target 1 MT 5'PFS GCA 3'PFS AUU (mixed)
RNA 1: CACCCGUGCAAAAAUGCAGGGGUCUAAAACUGAGCGGAUAACCUCUCUAUGG
RNA 2: GGGAAUGGAUCCACAUCUACGAAUUCGCACCAUAGAGAGGUUAUCCGCUCAAUUAGAUCGGAAGAGCACACGU
B19: target 1 MT 5'PFS GUC 3'PFS GCG (mixed)
RNA 1: CACCCGUGCAAAAAUGCAGGGGUCUAAAACUGAGCGGAUAACCUCUCUAUGG
RNA 2: GGGAAUGGAUCCACAUCUACGAAUUCGUCCCAUAGAGAGGUUAUCCGCUCAGCGAGAUCGGAAGAGCACACGU
B20: target 1 insG 3' of 18,insC 3' of 11 (mixed)
RNA 1: CACCCGUGCAAAAAUGCAGGGGUCUAAAACUGAGCGGAUAACCUCUCUAUGG
RNA 2: GGGAAUGGAUCCACAUCUACGAAUUCGUACCAUAGGAGAGGUCUAUCCGCUCACCGAGAUCGGAAGAGCACACGU
B21: target 1 MT 5'PFS GCA 3'PFS AUG (mixed)
RNA 1: CACCCGUGCAAAAAUGCAGGGGUCUAAAACUGAGCGGAUAACCUCUCUAUGG
RNA 2: GGGAAUGGAUCCACAUCUACGAAUUCGCACCAUAGAGAGGUUAUCCGCUCAAUGAGAUCGGAAGAGCACACGU
B22: target 1 MT 5'PFS GCC 3'PFS AGG (mixed)
RNA 1: CACCCGUGCAAAAAUGCAGGGGUCUAAAACUGAGCGGAUAACCUCUCUAUGG
RNA 2: GGGAAUGGAUCCACAUCUACGAAUUCGCCCCAUAGAGAGGUUAUCCGCUCAAGGAGAUCGGAAGAGCACACGU
B23: target 1 MT 5'PFS GCA 3'PFS AUC (mixed)
RNA 1: CACCCGUGCAAAAAUGCAGGGGUCUAAAACUGAGCGGAUAACCUCUCUAUGG
RNA 2: GGGAAUGGAUCCACAUCUACGAAUUCGCACCAUAGAGAGGUUAUCCGCUCAAUCAGAUCGGAAGAGCACACGU
B24: target 1 MT 5'PFS GCC 3'PFS AGA (mixed)
RNA 1: CACCCGUGCAAAAAUGCAGGGGUCUAAAACUGAGCGGAUAACCUCUCUAUGG
RNA 2: GGGAAUGGAUCCACAUCUACGAAUUCGCCCCAUAGAGAGGUUAUCCGCUCAAGAAGAUCGGAAGAGCACACGU
B25: target 1 MT 5'PFS GCA 3'PFS AUA (mixed)
RNA 1: CACCCGUGCAAAAAUGCAGGGGUCUAAAACUGAGCGGAUAACCUCUCUAUGG
RNA 2: GGGAAUGGAUCCACAUCUACGAAUUCGCACCAUAGAGAGGUUAUCCGCUCAAUAAGAUCGGAAGAGCACACGU
B26: target 1 MT 5'PFS GCC 3'PFS AGC (mixed)
RNA 1: CACCCGUGCAAAAAUGCAGGGGUCUAAAACUGAGCGGAUAACCUCUCUAUGG
RNA 2: GGGAAUGGAUCCACAUCUACGAAUUCGCCCCAUAGAGAGGUUAUCCGCUCAAGCAGAUCGGAAGAGCACACGU
B27: target 1 MT 5'PFS GUU 3'PFS CAU (mixed)
RNA 1: CACCCGUGCAAAAAUGCAGGGGUCUAAAACUGAGCGGAUAACCUCUCUAUGG
RNA 2: GGGAAUGGAUCCACAUCUACGAAUUCGUUCCAUAGAGAGGUUAUCCGCUCACAUAGAUCGGAAGAGCACACGU
B28: target 1 MT 5'PFS CCA 3'PFS UUU (mixed)
RNA 1: CACCCGUGCAAAAAUGCAGGGGUCUAAAACUGAGCGGAUAACCUCUCUAUGG
RNA 2: GGGAAUGGAUCCACAUCUACGAAUUCCCACCAUAGAGAGGUUAUCCGCUCAUUUAGAUCGGAAGAGCACACGU

Biological target: T1, EsCas13d, nuclease-dead
Experiment: crRNA (strand 1, pre-loaded); Mg2+; 40 mM Tris-HCl pH 7.5, 150 mM NaCl, 6 mM MgCl2, 1 mM DTT, 0.1% Tween-20, 0.2 mg/ml BSA; 25 C; 10 min per concentration, then washed
Settings: tags: His6-TwinStrep-SUMO cleaved; N-terminal SNAP kept (SNAP-Surface 488); label: 3' end held by stalled T7 RNA polymerase

Row | Binder | Kd [nM]
1 | B1 | 10.5 ± 0.62
2 | B2 | 10.9 ± 1.1
3 | B3 | 14.5 ± 1.45
4 | B4 | 20.5 ± 6.5
5 | B5 | 10.3 ± 0.7
6 | B6 | 8.65 ± 3.7
7 | B7 | 11.9 ± 4
8 | B8 | 9.5 ± 0.4
9 | B9 | 16.2 ± 1.1
10 | B10 | ~63
11 | B11 | 51.5 ± 21
12 | B12 | 72 ± 26
13 | B13 | 20 ± 5.5
14 | B14 | 40 ± 10.5
15 | B15 | ~24.5
16 | B16 | 62 ± 26.5
17 | B17 | 27 ± 7
18 | B18 | 15.5 ± 2.95
19 | B19 | 15.5 ± 7.5
20 | B20 | 99 ± 19
21 | B21 | 24.5 ± 6
22 | B22 | 37 ± 9.5
23 | B23 | ~28
24 | B24 | 24.5 ± 8
25 | B25 | 25.5 ± 8.5
26 | B26 | 13.1 ± 3.8
27 | B27 | 22.5 ± 7
28 | B28 | 2.4 ± 0.9
